This is an account of results in publication PMC10989797, “Mechanistic insights into the key marine dimethylsulfoniopropionate synthesis enzyme DsyB/DSYB” (mLife, 2022).

What is called stoichiometry N is the number of molecules, sites or subunits per partner or assembly. Broadly, the Km is the substrate concentration at which the rate is half of its maximum.

For data set [1], the target named is T1, N. denitrificans DsyB (Nisaea denitrificans, UniProt A0A979HMS8).
T1 construct: full length, 337 residues (Met1-Glu337), C-terminal His-tag (pET22b), E. coli BL21(DE3); initiator Met mostly cleaved; monomer 37,215 Da predicted; homodimer in solution
Briefly: X-ray crystal structure of complex; native MS. Type of data set: binding.

The target of data set [2] is Nisaea denitrificans DsyB (Nisaea denitrificans DR41_21 (DSM 18348)). Kind of data set: SEC; gel filtration of DsyB in solution; conalbumin (75,000 Da) and ovalbumin (43,000 Da) as markers. A general note: SEC sorts molecules by how far they enter the pores of the column.
For data set [3] the target is unchanged. Briefly: native MS; nondenaturing MS of as-isolated DsyB exchanged into 250 mM ammonium acetate, pH 8.0; dimer region also seen with 25 equivalents of SAM.
Data set [4] has as its target T1, N. denitrificans DsyB. Kind of data set: X-ray crystal structure of complex. Type of data set: binding. As to conditions: DsyB-SAH-MTHB complex; SAM site in C-domain; 1 mM SAH and 1 mM DL-MTHB.
Substrate in data set [5]: CSCCC(O)C(=O)O
Kind of data set: GC of DMS released from product by alkali; nonlinear fit. As to conditions: 1 mM SAM, 1.97 µM enzyme activated with heat-killed L. aggregata dsyB- lysate fractions, racemic substrate 0-2 mM, 50 mM Tris-HCl, 100 mM NaCl, pH 8.0, 28 °C. Type of data set: biochemical, Nisaea denitrificans.

Substrate in data set [6]: C[S+](CC[C@H](N)C(=O)O)C[C@H]1O[C@@H](n2cnc3c(N)ncnc32)[C@H](O)[C@@H]1O
Kind of data set: cells, lysate or membranes named. As to conditions: 1 mM DL-MTHB, 0-2 mM SAM, 1.97 µM enzyme activated with heat-killed L. aggregata dsyB- lysate fractions, 50 mM Tris-HCl, 100 mM NaCl, pH 8.0, 28 °C.

For `C[S+](CC[C@H](N)C(=O)O)C[C@H]1O[C@@H](n2cnc3c(N)ncnc32)[C@H](O)[C@@H]1O` (stereo partly shown) [SAM], the “X-ray crystal structure of complex; native MS” value at N. denitrificans DsyB [1] (DsyB-SAM complex, SAM bound in chains A-C, not D, 1 mM SAM) was “three monomers (Chain A, B, and C) of the asymmetric unit contained SAM molecules”. For Nisaea denitrificans DsyB (enzyme), the stoichiometry N in data set [2] and in data set [3] was 2 in each case. For `CSCCC(O)C(=O)O` (racemic) [MTHB], at N. denitrificans DsyB [1] (DsyB-SAH-MTHB complex, poor MTHB density, >6 Å from SAH, presumed initial binding site, 1 mM DL-MTHB), the “X-ray crystal structure of complex; native MS” value is “the MTHB cosubstrate molecule is located between the C‐domain and the N‐domain”. As to `Nc1ncnc2c1ncn2[C@@H]1O[C@H](CSCC[C@H](N)C(=O)O)[C@@H](O)[C@H]1O` [SAH], the “X-ray crystal structure of complex” value on N. denitrificans DsyB [4] is “we solved the crystal structures of complexes of DsyB with SAM and with SAH‐MTHB”.

B1: N. denitrificans DsyB (Nisaea denitrificans DSM 18348) (protein)
chain: MTLLTNAEEISDIAFGFMGSKALFAALHHGVFTCLADGPLSVEEMAAATGLHPDRVQTLLTALASLGVVSAVEGRFANSPAAESFLVKGAKYDFGDYLRLQVDRQMYGLLDQIEDAIANNLPDDATSSYADWFSDPEQAKLYSNSQHAGSLGPARGLAKLIDLSGGKKLLDVGGGTGAFAITLCKAFADLAATIVDFPNVAALGKGYVEKAGLSDRIEYVIGDALRTEWPREQDAILMSYLFSGVAGDEHDSLLKRAYDHLVPGGRLLIHDFVVTADRTGPKLAALWQLQHTAFTPEARSLDDEWLAEQLKKTGFTDVKVGPMIPGMTMLAEAVRPE
notes: full length, 337 residues (Met1-Glu337), C-terminal His-tag (pET22b), E. coli BL21(DE3); initiator Met mostly cleaved; monomer 37,215 Da predicted; homodimer in solution
B1: the Km was determined as 140 ± 20 µM in data set [5] and 160 ± 2 µM in data set [6].
